Laboratory results reported in patent publication US20190345232A1 (GENEURO, published 2019).

Target: T1, linear peptide SLDKHKHKKLQSFYP (SEQ ID NO:9) from HERV-K-Env (human endogenous retrovirus type K …)
T1 construct: 15-mer synthesized on a solid support in the Pepscan peptide array; It corresponds to the 298-312 region of the HERV-K-Env protein described by Dewannieux et al 2005
T1 peptide: SLDKHKHKKLQSFYP
Assay: Pepscan peptide array ELISA, antibody at 1 µg/ml

B1: GN_mAb_Env_K01 (antibody, V domains shown)
VH: QVQLQQPGAELVRPGASVKLSCKASGYTFTSYWMNWVKQRPEQGLEWIGRIDPYDSETHYNQKFKDKAILTVDKSSSTAYMQLSSLTSEDSAVYYCASLYYYGISLWGQGTLVTVS
VL: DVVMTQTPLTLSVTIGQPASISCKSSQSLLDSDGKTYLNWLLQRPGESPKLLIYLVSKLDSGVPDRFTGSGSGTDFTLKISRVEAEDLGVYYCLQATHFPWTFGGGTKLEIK
notes: also called GN K01; GN K01 Ig
**Q.** Does B1 bind?
**A.** Result: binds
